Laboratory results reported in IntAct's records for PubMed 19081057.

B1: E3 ubiquitin-protein ligase pellino homolog 2 (Homo sapiens), Q9HAT8 (parent)
chain: MFSPGQEEHCAPNKEPVKYGELVVLGYNGALPNGDRGRRKSRFALYKRPKANGVKPSTVHVISTPQASKAISCKGQHSISYTLSRNQTVVVEYTHDKDTDMFQVGRSTESPIDFVVTDTISGSQNTDEAQITQSTISRFACRIVCDRNEPYTARIFAAGFDSSKNIFLGEKAAKWKNPDGHMDGLTTNGVLVMHPRGGFTEESQPGVWREISVCGDVYTLRETRSAQQRGKLVESETNVLQDGSLIDLCGATLLWRTADGLFHTPTQKHIEALRQEINAARPQCPVGLNTLAFPSINRKEVVEEKQPWAYLSCGHVHGYHNWGHRSDTEANERECPMCRTVGPYVPLWLGCEAGFYVDAGPPTHAFTPCGHVCSEKSAKYWSQIPLPHGTHAFHAACPFCATQLVGEQNCIKLIFQGPID

Variants of: B1
Conditions: with irak1_human IRAK1, P51617
irak1_human IRAK1, P51617, sequence (P51617 whole entry, looked up): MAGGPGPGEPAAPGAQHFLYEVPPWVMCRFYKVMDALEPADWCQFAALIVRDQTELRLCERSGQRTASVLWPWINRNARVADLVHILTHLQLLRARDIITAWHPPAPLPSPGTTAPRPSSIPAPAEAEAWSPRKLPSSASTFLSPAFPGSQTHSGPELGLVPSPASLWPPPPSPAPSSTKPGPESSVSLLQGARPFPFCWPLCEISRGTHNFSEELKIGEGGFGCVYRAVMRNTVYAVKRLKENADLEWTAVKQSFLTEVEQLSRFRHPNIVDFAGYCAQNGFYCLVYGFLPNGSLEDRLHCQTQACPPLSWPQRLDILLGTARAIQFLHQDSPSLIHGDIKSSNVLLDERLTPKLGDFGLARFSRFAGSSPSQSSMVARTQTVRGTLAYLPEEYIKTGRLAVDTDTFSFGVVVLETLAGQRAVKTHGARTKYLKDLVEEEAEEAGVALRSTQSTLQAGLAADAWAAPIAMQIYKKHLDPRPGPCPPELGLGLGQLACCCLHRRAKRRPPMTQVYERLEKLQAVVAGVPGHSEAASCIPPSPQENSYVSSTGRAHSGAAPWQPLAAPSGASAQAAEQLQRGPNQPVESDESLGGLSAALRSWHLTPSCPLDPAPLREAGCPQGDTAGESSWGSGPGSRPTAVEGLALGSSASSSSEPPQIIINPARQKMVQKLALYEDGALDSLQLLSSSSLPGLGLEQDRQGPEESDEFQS

Row | effect of a mutation on the interaction | Variant
1 | disrupting interaction | MFSPGQEEHCAPNKEPVKYGELVVLGYNGALPNGDRGRRKSRFALYKRPKANGVKPSTVHVISTPQASKAISCKGQHSISYTLSRNQTVVVEYTHDKDTDMFQVGASTESPIDFVVTDTISGSQNTDEAQITQSTISRFACRIVCDRNEPYTARIFAAGFDSSKNIFLGEKAAKWKNPDGHMDGLTTNGVLVMHPRGGFTEESQPGVWREISVCGDVYTLRETRSAQQRGKLVESETNVLQDGSLIDLCGATLLWRTADGLFHTPTQKHIEALRQEINAARPQCPVGLNTLAFPSINRKEVVEEKQPWAYLSCGHVHGYHNWGHRSDTEANERECPMCRTVGPYVPLWLGCEAGFYVDAGPPTHAFTPCGHVCSEKSAKYWSQIPLPHGTHAFHAACPFCATQLVGEQNCIKLIFQGPID [R106A]
2 | disrupting interaction | MFSPGQEEHCAPNKEPVKYGELVVLGYNGALPNGDRGRRKSRFALYKRPKANGVKPSTVHVISTPQASKAISCKGQHSISYTLSRNQTVVVEYTHDKDTDMFQVGRSTESPIDFVVTDTISGSQNTDEAQITQSTISRFACRIVCDRNEPYTARIFAAGFDSSKNIFLGEKAAKWKNPDGHMDGLTAAGVLVMHPRGGFTEESQPGVWREISVCGDVYTLRETRSAQQRGKLVESETNVLQDGSLIDLCGATLLWRTADGLFHTPTQKHIEALRQEINAARPQCPVGLNTLAFPSINRKEVVEEKQPWAYLSCGHVHGYHNWGHRSDTEANERECPMCRTVGPYVPLWLGCEAGFYVDAGPPTHAFTPCGHVCSEKSAKYWSQIPLPHGTHAFHAACPFCATQLVGEQNCIKLIFQGPID [T187A;N188A]
